± gives the standard error. For part of these data: This sample holds only a part of the variants without activity.
B1: glmS ribozyme (parent)
chain: AUAAAAGCGCCAGAACUACAGAAAUGUAGUUGACGAGGAGGAGGUUUAUCGAAUUUUCGGCGGAUGCCUCCAAA

What was measured:
Settings in all cases: with glucosamine-6-phosphate
glucosamine-6-phosphate [1] = variants of: B1; assay: kcat; higher = faster cleavage; RNA array
How it was run: (§1)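 E. coli RNA polymerase transcribed barcoded ribozyme variants in situ on sequenced MiSeq chips, which were tracked via a hybridised Cy3 probe at 37 °C. Tiles were imaged over ~14 h after glucosamine-6-phosphate (40 μM to 10 mM) in HEPES/KCl/Mg(OAc)2 buffer was flowed in. Normalised per-tile medians were fit to one- or two-exponential decays for kobs, and kcat and KM came from weighted Michaelis–Menten fits.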

glucosamine-6-phosphate [2] = variants of: B1; assay: KM; higher = weaker cofactor use; RNA array
How it was run: as §1

glucosamine-6-phosphate [3] = variants of: B1; assay: self-cleavage kobs at 2500 uM GlcN6P; higher = faster cleavage; RNA array
How it was run: as §1

glucosamine-6-phosphate [4] = variants of: B1; assay: self-cleavage kobs at 10000 uM GlcN6P; higher = faster cleavage; RNA array
How it was run: as §1

glucosamine-6-phosphate [5] = variants of: B1; assay: self-cleavage kobs at 640 uM GlcN6P; higher = faster cleavage; RNA array
How it was run: as §1

glucosamine-6-phosphate [6] = variants of: B1; assay: self-cleavage kobs at 40 uM GlcN6P; higher = faster cleavage; RNA array
How it was run: as §1

glucosamine-6-phosphate [7] = variants of: B1; assay: self-cleavage kobs at 160 uM GlcN6P; higher = faster cleavage; RNA array
How it was run: as §1

Variant	kcat (glucosamine-6-phosphate [1]) [s⁻¹]	KM (glucosamine-6-phosphate [2]) [µM]	self-cleavage kobs at 2500 uM GlcN6P (glucosamine-6-phosphate [3]) [s⁻¹]	self-cleavage kobs at 10000 uM GlcN6P (glucosamine-6-phosphate [4]) [s⁻¹]	self-cleavage kobs at 640 uM GlcN6P (glucosamine-6-phosphate [5]) [s⁻¹]	self-cleavage kobs at 40 uM GlcN6P (glucosamine-6-phosphate [6]) [s⁻¹]	self-cleavage kobs at 160 uM GlcN6P (glucosamine-6-phosphate [7]) [s⁻¹]
G32C U47A	4.35e-05 ± 2.1e-06	1450 ± 320	2.87e-05 ± 1.3e-05	3.77e-05 ± 9.7e-06	–	–	–
G32C U47G	1.21e-05 ± 1.1e-07	403 ± 39	–	–	–	–	–
C34G C67U	< 1e-05	–	–	–	< 1e-05	–	–
G37U G38C	< 1e-05	–	< 1e-05	–	–	< 1e-05	< 1e-05
G37A C58A	1.97e-05 ± 3.4e-06	–	–	–	–	–	–
G38U G66C C71U	1.04e-05 ± 1e-06	–	–	–	–	–	–
G37C G59U	1.65e-05 ± 6.9e-06	–	–	–	–	–	–
G37U A52G	< 1e-05	–	–	–	< 1e-05	< 1e-05	–
G35A C50G	0.000781 ± 0.00018	1190 ± 540	0.000615 ± 0.00015	–	0.000273 ± 0.00012	–	–
G38A C61A	< 1e-05	–	–	–	–	–	–
G38A C61G	1.44e-05 ± 3.1e-06	–	–	–	–	–	–
G37C U54C	6.94e-05 ± 3e-05	–	–	3.48e-05 ± 7.4e-06	–	–	–
C34G C68A	2.06e-05 ± 8.4e-06	–	–	–	–	–	–
G37U C71A	1.95e-05 ± 4.6e-06	–	–	–	–	–	–
A39C A48U	0.000107 ± 1.8e-05	2930 ± 1400	5.68e-05 ± 1.3e-05	8.1e-05 ± 1.2e-05	–	< 1e-05	< 1e-05
G38A C68A	< 1e-05	–	–	< 1e-05	–	< 1e-05	–
A33G G59U C68A C71A	2.2e-05 ± 6.5e-06	–	–	–	–	–	–
A33U G66U	1.11e-05 ± 1.2e-06	–	–	–	–	–	< 1e-05
G38U A39G C50G	3.57e-05 ± 8.1e-06	–	–	–	–	–	–
G35C U65G	< 1e-05	1500 ± 360	< 1e-05	–	–	< 1e-05	< 1e-05
A33U U65A	3.37e-05 ± 1.5e-06	–	–	–	< 1e-05	< 1e-05	< 1e-05
G38A U49A	< 1e-05	–	–	< 1e-05	–	< 1e-05	–
G32A U54A	0.00386 ± 0.001	3520 ± 1300	0.00157 ± 0.00026	0.00286 ± 0.00045	0.00067 ± 0.00011	6.3e-05 ± 1.3e-05	0.000125 ± 2.9e-05
G32A U57A	3.77e-05 ± 3.1e-06	3000 ± 970	–	2.89e-05 ± 9.1e-06	–	–	< 1e-05

Variant	kcat (glucosamine-6-phosphate [1]) [s⁻¹]	KM (glucosamine-6-phosphate [2]) [µM]	self-cleavage kobs at 2500 uM GlcN6P (glucosamine-6-phosphate [3]) [s⁻¹]	self-cleavage kobs at 10000 uM GlcN6P (glucosamine-6-phosphate [4]) [s⁻¹]	self-cleavage kobs at 640 uM GlcN6P (glucosamine-6-phosphate [5]) [s⁻¹]	self-cleavage kobs at 40 uM GlcN6P (glucosamine-6-phosphate [6]) [s⁻¹]	self-cleavage kobs at 160 uM GlcN6P (glucosamine-6-phosphate [7]) [s⁻¹]
G32C C61G	< 1e-05	–	–	–	< 1e-05	< 1e-05	–
G32C U54G	9.47e-05 ± 8e-06	2550 ± 810	5.12e-05 ± 1.5e-05	7.5e-05 ± 8.5e-06	–	–	–
A33U U46C	2.23e-05 ± 3.7e-06	–	–	–	–	–	–
A33U G40C	5.14e-05 ± 7.9e-06	–	–	–	–	–	–
G37A U46G	0.000363 ± 0.00014	–	0.000159 ± 2.3e-05	0.000421 ± 6.2e-05	0.000102 ± 1.4e-05	–	4.31e-05 ± 1.7e-05
A33G A64G C70A	5.02e-05 ± 9.3e-06	–	–	–	–	–	–
C34G U47G C58A C68A	5.47e-05 ± 1.4e-05	–	6.86e-05 ± 2.9e-05	–	6.8e-05 ± 3.3e-05	–	6.99e-05 ± 1.7e-05
C34A G51C	< 1e-05	–	–	< 1e-05	–	< 1e-05	–
A36U C71U	< 1e-05	–	–	–	< 1e-05	–	–
G32U C68G	1.3e-05 ± 1.3e-06	–	–	–	–	–	–
G38A U55C	< 1e-05	37.7 ± 15	–	–	–	–	–
G32U U55A	0.00193 ± 0.00061	9310 ± 4500	0.000332 ± 5.9e-05	0.00102 ± 8.2e-05	0.000132 ± 2e-05	2.84e-05 ± 1e-05	4.22e-05 ± 1.4e-05
A33U U47G	4.65e-05 ± 3.9e-06	–	4.09e-05 ± 6.6e-06	4.2e-05 ± 5.3e-06	–	< 1e-05	–
G32U C67A	0.000412 ± 4.2e-05	4200 ± 780	0.00014 ± 1.6e-05	0.000296 ± 2.2e-05	5.83e-05 ± 6.7e-06	–	–
G38C C61A	< 1e-05	–	< 1e-05	–	–	–	< 1e-05
A33G C71A	< 1e-05	–	–	< 1e-05	–	< 1e-05	< 1e-05
G35U G59U G66U	< 1e-05	–	–	–	< 1e-05	–	–
G37C C71A	1.96e-05 ± 6.3e-06	–	–	–	–	–	–
G37C C71U	3.39e-05 ± 1.3e-06	662 ± 140	2.55e-05 ± 9.5e-06	3.23e-05 ± 8.2e-06	–	–	–
G32A G41U	0.000608 ± 0.00022	–	0.000125 ± 2e-05	0.00037 ± 5.5e-05	5.48e-05 ± 9e-06	–	–
A36C C71G	1.27e-05 ± 2.5e-06	–	–	–	–	–	–
A36C C71A	< 1e-05	–	–	–	–	–	–
C34G G60U	< 1e-05	–	< 1e-05	–	–	< 1e-05	–
G37C U45A	0.00017 ± 2.9e-05	5840 ± 1900	4.81e-05 ± 9.9e-06	0.000109 ± 1.6e-05	2.56e-05 ± 1.3e-05	–	–

From the supplement of paper PMC7125110
